Measurements taken from publication PMC10450164 (Nucleic Acids Research, 2023).

Experiments:
crystal structure = target: the molecule itself; test: crystal structure
SEC = target: the molecule itself; test: SEC

Protein	binding result (crystal structure)	stoichiometry N (SEC)
TFAP2B DBD-HSH tandem domain (aa 219-457) (domain or fragment) not shown	binds	–
TFAP2A DBD-HSH tandem domain (aa 203-420) (domain or fragment) not shown	–	2
TFAP2A HSH domain (aa 279-411) (domain or fragment, human, UniProt P05549 279-411, looked up) GRRKAANVTLLTSLVEGEAVHLARDFGYVCETEFPAKAVAEFLNRQHSDPNEQVTRKNMLLATKQICKEFTDLLAQDRSPLGNSRPNPILEPGIQSCLTHFNLISHGFGSPAVCAAVTALQNYLTEALKAMDK	–	2
